Assay [1] addresses All4144 (GrpE homolog of Anabaena sp. PCC 7120), full length (Anabaena sp. PCC7120). Description: cross-linking.
Assay [2] addresses All4144(68–214), N-terminal deletion mutant of All4144 lacking the HTH domain (Anabaena sp. PCC7120). Description: cross-linking.

Broadly, the stoichiometry N is the number of molecules, sites or subunits per partner or assembly. Consider “All4144 (GrpE homolog of Anabaena sp. PCC 7120), full length (natural protein)”, for which, in assay [1], the stoichiometry N is 2.

“All4144(68–214), N-terminal deletion mutant of All4144 lacking the HTH domain (domain or fragment)” displayed a stoichiometry N in assay [2] of 2.

(Values after publication doi:10.1101/2025.04.14.648684.)
